Data taken from patent US12577311 (Dana-Farber, dated 2026).

Legend:
Test in all cases: cell-based or functional assay
[1] = target: monkey CAIX on transduced skrc-59 cells (monkey)
[2] = target: mouse CAIX on transduced skrc-59 cells (mouse, UniProt Q8VHB5 32-437)
[3] = target: hamster CAIX on transduced skrc-59 cells (hamster)

Sequence of mouse CAIX on transduced skrc-59 cells (Q8VHB5 32-437): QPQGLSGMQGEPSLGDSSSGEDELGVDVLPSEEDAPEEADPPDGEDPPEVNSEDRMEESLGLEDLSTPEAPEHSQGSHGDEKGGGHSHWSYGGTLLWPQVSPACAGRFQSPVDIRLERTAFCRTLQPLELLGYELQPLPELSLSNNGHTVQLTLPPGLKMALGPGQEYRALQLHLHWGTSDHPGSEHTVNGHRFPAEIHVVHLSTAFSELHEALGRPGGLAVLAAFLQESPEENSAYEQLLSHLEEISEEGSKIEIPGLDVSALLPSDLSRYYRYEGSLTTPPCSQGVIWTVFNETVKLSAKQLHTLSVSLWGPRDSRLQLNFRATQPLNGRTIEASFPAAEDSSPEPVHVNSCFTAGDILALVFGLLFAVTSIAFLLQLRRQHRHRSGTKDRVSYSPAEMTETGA

B1: anti-CAIX (G36) CAR (scFv, V domains shown)
VH: EVQLVQSGGGVVQPGGSLRLSCAASGFPFSSYAMSWVRQAPGKGLEWVSAISANGGTTYYADSVKGRFTISRDNSKNTLYLQMNSLRAEDTAVYYCANNGNYRGAFDIWGQGTMVTVSS
VL: QSVLTQPPSVSGAPGQRVTISCTGSSSNIGAGFDVHWYQQLPGTAPKLLIYGNTNRPSGVPDRFSGSKSGTSASLAITGLQAEDETDYYCQSYDSRLSAWVFGGGTKLTVLG
[1]
  killing assay of anti-CAIX (G36) CAR T cells: 100%
[2]
  killing assay of anti-CAIX (G36) CAR T cells: 50%
[3]
  killing assay of anti-CAIX (G36) CAR T cells: 50%
